Results: PMC11116815

Biological target: T1, chemokine (C-C motif) receptor (CCR)1 (human (endogenous in THP-1 and human monocytes)) (UniProt P32246)
T1 sequence: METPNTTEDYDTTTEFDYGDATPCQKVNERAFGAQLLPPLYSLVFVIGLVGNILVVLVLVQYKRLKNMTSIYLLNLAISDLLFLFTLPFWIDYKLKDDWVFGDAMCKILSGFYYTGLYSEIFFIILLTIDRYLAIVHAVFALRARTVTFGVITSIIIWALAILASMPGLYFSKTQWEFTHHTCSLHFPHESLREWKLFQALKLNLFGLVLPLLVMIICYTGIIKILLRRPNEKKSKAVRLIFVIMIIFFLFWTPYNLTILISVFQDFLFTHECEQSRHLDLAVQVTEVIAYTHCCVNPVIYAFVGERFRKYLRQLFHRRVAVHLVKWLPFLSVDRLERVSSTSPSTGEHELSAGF

EC50 of CCL23 for Gαi activation (TRUPATH BRET biosensor: Gαi1-Rluc8, Gβ3, Gγ9-GFP2) in HEK293T cells transfected with untagged CCR1 alone: 0.3 nM
B1: CCL23_(25-99) (ligand)
chain: RFHATSADCCISYTPRSIPCSLLESYFETNSECSKPGVIFLTKKGRRFCANPSDKQVQVCMRMLKLDTRIKTRKN
